Results as given in US20240218065A1 (SHENGHE CHINA BIOPHARMACEUTICAL, published 2024).

T1: Human-NKP30-His (Kactus, cat: NKP-HM430) (human, UniProt O14931 19-138, limits assumed)
T1 construct: also called NKP30 protein; NKP30-his protein; not shown: His tag
T1 sequence (looked up): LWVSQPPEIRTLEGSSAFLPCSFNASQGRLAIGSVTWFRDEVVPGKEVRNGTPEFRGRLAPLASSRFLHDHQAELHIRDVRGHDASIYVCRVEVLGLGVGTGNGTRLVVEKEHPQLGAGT

T2: huCD24-humanFC (Acro, cat: CD4-H5254) (human, UniProt P25063 27-59)
T2 construct: also called CD24 protein; not shown: human Fc
T2 chain (looked up): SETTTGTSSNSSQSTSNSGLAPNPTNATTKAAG


Columns and labels:
Human-GPC3-His = target: T3, Human-GPC3-His (human, UniProt P51654 25-559, limits assumed); assay: ELISA: Human-GPC3-His coated at 0.5 µg/mL, antibody titrated 3-fold from 10 µg/mL, HRP goat anti-human IgG-Fc, OD450-OD570
T3 construct: Coated on the ELISA plate; also called GPC-3 protein; GPC3 protein; not shown: His tag
T3 sequence (P51654 25-559 limits assumed): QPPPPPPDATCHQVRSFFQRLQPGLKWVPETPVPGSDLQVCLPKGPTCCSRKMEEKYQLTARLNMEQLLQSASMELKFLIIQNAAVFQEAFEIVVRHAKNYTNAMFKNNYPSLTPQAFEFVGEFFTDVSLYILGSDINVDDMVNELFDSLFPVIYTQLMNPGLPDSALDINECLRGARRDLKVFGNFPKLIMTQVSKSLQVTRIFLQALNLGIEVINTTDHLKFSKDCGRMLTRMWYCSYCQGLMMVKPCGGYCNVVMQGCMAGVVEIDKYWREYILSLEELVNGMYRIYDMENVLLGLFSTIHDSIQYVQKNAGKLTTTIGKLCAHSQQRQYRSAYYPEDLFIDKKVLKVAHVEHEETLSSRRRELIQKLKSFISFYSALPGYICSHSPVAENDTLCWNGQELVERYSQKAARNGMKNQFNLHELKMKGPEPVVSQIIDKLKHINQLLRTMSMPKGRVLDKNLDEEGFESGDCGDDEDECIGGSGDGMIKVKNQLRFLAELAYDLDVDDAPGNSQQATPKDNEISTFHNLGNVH
Experimental: Human-GPC3-His was diluted to 0.5 μg/mL with PBS buffer at pH 7.4, added into the 96-well ELISA plate at 100 μL per well, coated overnight at 4° C., and blocked with 1% BSA blocking solution for 1 hour. The plate was washed 3 times with PBST, and the constructed antibody was diluted to 10 μg/mL with 0.5% BSA sample diluent as the starting concentration, and then diluted by 3-fold gradient (11 gradients in total) and incubated at 37° C. for 1 h at 100 μL per well. The plate was washed 3 times with PBST, and then HRP-labelled goat anti-human IgG-Fc was diluted with the sample diluent at 1:20000. 100 μL was added into each well, and incubated at room temperature for 1 hour. A negative control (blank well and IgG1 isotype control) and a positive control were set, and the positive control was a GPC-3 and CD3 bispecial antibody from the literature Hs, A, et al. “Engineering a bispecific antibody with a common light chain: Identification and optimization of an anti-CD3 epsilon and anti-GPC3 bispecific antibody, ERY974.” Methods 154 (2019): 10-20. (The GPC-3 and CD3 bispecial antibody sequence consists of SEQ ID No. 22, SEQ ID No. 23, and SEQ ID No. 24). The plate was washed 4 times with PBST, and 100 μL of TMB substrate was added into each well, and incubated at room temperature without light for 10 minutes. 100 μL of 1 M HCl solution was added into each well to terminate the color development reaction. The absorbance value of each well in the 96-well plate was determined by selecting the wavelength of 450 nm and the reference wavelength of 570 nm on a multifunctional enzyme marker, and the absorbance value (OD)=OD₄₅₀ₙₘ−OD₅₇₀ₙₘ. The logarithm of the concentration of the constructed antibody was taken as the abscissa, and the measured absorbance value of each well was taken as the ordinate, and the Sigmoidaldose-response (Variable Slope) method (GraphPad Prism software, GraphPad Software, San Diego, California) was selected for nonlinear regression to obtain the binding curve of the target antibody to the GPC-3 protein.

[1] = target: T1, Human-NKP30-His (Kactus, cat: NKP-HM430); assay: ELISA: Human-NKP30-His coated, antibody titrated 3-fold from 10 µg/mL, HRP goat anti-human IgG-Fc, OD450-OD570
Experimental: Human-NKP30-His (Kactus, cat: NKP-HM430) was diluted to […] with PBS buffer at pH 7.4, added into the 96-well ELISA plate at 100 μL per well, coated overnight at 4° C., and blocked with 1% BSA blocking solution for 1 hour. The plate was washed 3 times with PBST, and the constructed antibodies were diluted to 10 μg/mL with 0.5% BSA sample diluent as the starting concentration, and then diluted by 3-fold gradient (11 gradients in total). A negative control (blank well and IgG1 isotype control) and a positive control were set, and the positive control was a NKP30 humanized antibody (sequence shown in SEQ ID No. 28), and incubated at 37° C. for 1 h at 100 μL per well. […] The absorbance value of each well in the 96-well plate was determined by selecting the wavelength of 450 nm and the reference wavelength of 570 nm on a multifunctional enzyme marker, and the absorbance value (OD)=OD₄₅₀ₙₘ−OD₅₇₀ₙₘ. The logarithm of the concentration of the constructed antibody was taken as the abscissa, and the measured absorbance value of each well was taken as the ordinate, and the Sigmoidaldose-response (Variable Slope) method (GraphPad Prism software, GraphPad Software, San Diego, California) was selected for nonlinear regression to obtain the binding curve of the target antibody to NKP30.

[2] = target: T1, Human-NKP30-His (Kactus, cat: NKP-HM430); assay: ELISA: Human-NKP30-His coated at 0.2 µg/mL, antibody titrated 3-fold from 10 µg/mL (7 points), HRP goat anti-human IgG-Fc, OD450-OD570
Experimental: Human-NKP30-His (Kactus, cat: NKP-HM430) was diluted to 0.2 μg/mL with PBS buffer at pH 7.4, added into the 96-well ELISA plate at 100 μL per well, coated overnight at 4° C., and blocked with 1% BSA blocking solution for 1 hour. The plate was washed 3 times with PBST, and the constructed expressing antibody was diluted to 10 μg/mL with 0.5% BSA sample diluent as the starting concentration, and then diluted by 3-fold gradient (7 gradients in total). A negative control (blank well and IgG1 isotype control) and a positive control were set, and the positive control was the NKP30 humanized antibody (sequence shown in SEQ ID No. 28), and incubated at 37° C. for 1 h at 100 μL per well. The plate was washed 3 times with PBST, and then HRP-labelled goat anti-human IgG-Fc was diluted with the sample diluent at 1:20000. 100 μL was added into each well, and incubated at room temperature for 1 hour. The plate was washed 4 times with PBST, and 100 μL of TMB substrate was added into each well, and incubated at room temperature without light for 10 minutes. 100 μL of 1 M HCl solution was added into each well to terminate the color development reaction. The absorbance value of each well in the 96-well plate was determined by selecting the wavelength of 450 nm and the reference wavelength of 570 nm on a multifunctional enzyme marker, and the absorbance value (OD)=OD₄₅₀ₙₘ−OD₅₇₀ₙₘ. The logarithm of the concentration of the constructed antibody was taken as the abscissa, and the measured absorbance value of each well was taken as the ordinate, and the Sigmoidaldose-response (Variable Slope) method (GraphPad Prism software, GraphPad Software, San Diego, California) was selected for nonlinear regression to obtain the binding curve of the target antibody to NKP30.

[3] = target: T2, huCD24-humanFC (Acro, cat: CD4-H5254); assay: Bridging ELISA: huCD24-humanFC coated at 0.3 µg/mL, antibody titrated 3-fold from 20 µg/mL, then NKP30-his at 0.3 µg/mL, HRP anti-His antibody, OD450-OD570
Experimental: The huCD24-humanFC (Acro, cat: CD4-H5254) was diluted to 0.3 μg/mL with PBS buffer at pH 7.4, added into the 96-well ELISA plate at 100 μL per well, coated overnight at 4° C., and blocked with 1% BSA blocking solution for 1 hour. The plate was washed 3 times with PBST, and the purified antibody was diluted to 20 μg/mL with 0.5% BSA sample diluent as the starting concentration, and then diluted by 3-fold gradient (11 gradients in total). An irrelevant antibody was set as the negative control and incubated at 37° C. for 1 h at 50 μL per well. The plate was washed 3 times with PBST, and the NKP30-his protein was diluted to 0.3 μg/mL. 100 μL was added into each well, and incubated at room temperature for 1 h. The plate was washed 3 times with PBST, and then HRP-labelled his antibody was diluted with the sample diluent at 1:5000. 100 μL was added into each well, and incubated at room temperature for 1 h. The plate was washed 4 times with PBST, 100 μL of TMB substrate was added into each well, and incubated at room temperature without light for 10 min. 100 μL of 1 M HCl solution was added into each well to terminate the color development reaction. The absorbance value of each well in the 96-well plate was determined by selecting the wavelength of 450 nm and the reference wavelength of 570 nm on a multifunctional enzyme marker, and the absorbance value (OD)=OD₄₅₀ₙₘ−OD₅₇₀ₙₘ. The logarithm of antibody concentration was taken as the abscissa, and the measured absorbance value of each well was taken as the ordinate, and the Sigmoidaldose-response (Variable Slope) method (GraphPad Prism software, GraphPad Software, San Diego, California) was selected for nonlinear regression to obtain the binding curve of the target antibody to CD24 and NKP30 proteins at both ends.

Row | EC50 (read off the curve) (Human-GPC3-His) [µg/mL] | EC50 (read off the curve) [1] [µg/mL] | binding result [2] | EC50 (read off the curve) [3] [µg/mL] | Binder
1 | ~0.03 | ~0.02 |  |  | GN15-A (bispecific antibody, human IgG1, kappa, Trifunctional antibody against GPC-3 and NKP30 with IL-15 and IL-15Rα sushi between CH1 and CH2 of the two heavy chains; IgG1 knob/hole Fc; also called constructed antibody GN15-A; multifunctional antibody) light: EVQLVESGGGLVQPGGSLRLSCAASGITFSRSVMGWFRQAPGKLRELVAGITSDDNTDYADSVKGRFTISRDNSKNTLYLQMNSLRAEDTAVYYCNILPDSRLGWGQGTLVTVSSGGGGSGGGGSGGGGSDVVMTQSPLSLPVTPGEPASISCRSSQSLVHSNRNTYLHWYLQKPGQSPQLLIYKVSNRFSGVPDRFSGSGSGTDFTLKISRVEAEDVGVYYCSQNTHVPPTFGQGTKLEIKRTVAAPSVFIFPPSDEQLKSGTASVVCLLNNFYPREAKVQWKVDNALQSGNSQESVTEQDSKDSTYSLSSTLTLSKADYEKHKVYACEVTHQGLSSPVTKSFNRGEC heavy 1: not shown heavy 2: QVQLVQSGAEVKKPGASVKVSCKASGYTFTDYEMHWVRQAPGQGLEWMGALDPKTGDTAYSQKFKGRVTLTADKSTSTAYMELSSLTSEDTAVYYCTRFYSYTYWGQGTLVTVSSASTKGPSVFPLAPSSKSTSGGTAALGCLVKDYFPEPVTVSWNSGALTSGVHTFPAVLQSSGLYSLSSVVTVPSSSLGTQTYICNVNHKPSNTKVDKKVEPKSCDKTHTCPPCPGGGGSGGGGSPALLLLLLLRPPATRGITCPPPMSVEHADIWVKSYSLYSRERYICNSGFKRKAGTSSLTECVLNKATNVAHWTTPSLKCIRDPALVHQRPAPPSTVTTAGVTPQPESLSPSGKEGGGGSGGGGSAPELLGGPSVFLFPPKPKDTLMISRTPEVTCVVVDVSHEDPEVKFNWYVDGVEVHNAKTKPREEQYNSTYRVVSVLTVLHQDWLNGKEYKCKVSNKALPAPIEKTISKAKGQPREPQVYTLPPSRDELTKNQVSLTCLVKGFYPSDIAVEWESNGQPENNYKTTPPVLDSDGSFFLASKLTVDKSRWQQGNVFSCSVMHEALHNHYTQKSLSLSPGK
2 |  |  | binds | ~0.2 | DN15-D (bispecific antibody, human IgG1, kappa, Trifunctional antibody against CD24 and NKP30 with IL-15 and IL-15Rα sushi between CH1 and CH2; also called constructed antibody DN15-D; multifunctional antibody) light: DIQMTQSPSTLSASVGDRVTITCSASSSVSSMHWYQQKPGKAPKLLIYSTSNLASGVPSRFSGSGSGTEYTLTISSLQPDDFATYYCHHWTSYMYTFGGGTKVEIKRTVAAPSVFIFPPSDEQLKSGTASVVCLLNNFYPREAKVQWKVDNALQSGNSQESVTEQDSKDSTYSLSSTLTLSKADYEKHKVYACEVTHQGLSSPVTKSFNRGEC heavy 1: not shown heavy 2: QVQLVQSGSELKKPGASVKVSCKASGYIFTDYAIHWVRQAPGQGLEWMGFINTATGEPTYADDFKGRFVFSLDTSVSTAYLQISSLKAEDTAVYFCTSGVHWGQGTLVTVSSASTKGPSVFPLAPSSKSTSGGTAALGCLVKDYFPEPVTVSWNSGALTSGVHTFPAVLQSSGLYSLSSVVTVPSSSLGTQTYICNVNHKPSNTKVDKKVEPKSCDKTHTCPPCPGGGGSGGGGSPALLLLLLLRPPATRGITCPPPMSVEHADIWVKSYSLYSRERYICNSGFKRKAGTSSLTECVLNKATNVAHWTTPSLKCIRDPALVHQRPAPPSTVTTAGVTPQPESLSPSGKEGGGGSGGGGSAPELLGGPSVFLFPPKPKDTLMISRTPEVTCVVVDVSHEDPEVKFNWYVDGVEVHNAKTKPREEQYNSTYRVVSVLTVLHQDWLNGKEYKCKVSNKALPAPIEKTISKAKGQPREPQVYTLPPSRDELTKNQVSLTCLVKGFYPSDIAVEWESNGQPENNYKTTPPVLDSDGSFFLASKLTVDKSRWQQGNVFSCSVMHEALHNHYTQKSLSLSPGKGGGGSGGGGSGGGGSGGGGSEVQLVESGGGLVQPGGSLRLSCAASGITFSRSVMGWFRQAPGKLRELVAGITSDDNTDYADSVKGRFTISRDNSKNTLYLQMNSLRAEDTAVYYCNILPDSRLGWGQGTLVTVSS
